Patent US20210101937A1

Target: CD137 (UniProt Q07011)
Experiment: cell-based or functional assay

Chain of CD137 (Q07011 24-255 limits assumed): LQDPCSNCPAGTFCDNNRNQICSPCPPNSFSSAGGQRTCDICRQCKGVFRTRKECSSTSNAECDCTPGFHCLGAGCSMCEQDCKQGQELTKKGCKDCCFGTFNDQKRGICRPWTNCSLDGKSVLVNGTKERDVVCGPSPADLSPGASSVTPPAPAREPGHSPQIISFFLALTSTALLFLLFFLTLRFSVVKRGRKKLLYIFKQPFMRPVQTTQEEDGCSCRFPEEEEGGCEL

Row | Substance | EC50, CD137 reporter coculture assay with NCI-H292 cells [nM] | Emax, CD137 reporter coculture assay with NCI-H292 cells (fold over background) | EC50, CD137 reporter coculture assay with PC3 cells [nM] | Emax, CD137 reporter coculture assay with PC3 cells (fold over background)
1 | BCY10000 (peptide) | 1.1 | 28 |  | 
2 | BCY9173 (peptide) |  |  | 0.54 | 42
